The subject of series [1] is O=[N+]([O-])c1ccc(O[C@@H]2O[C@H](CO)[C@@H](O)[C@H](O)[C@H]2O)cc1. The experiment in a line: purified protein. Conditions: 50 mM potassium phosphate pH 7.2, 52 °C, 5 min, text b17 prints a different Km than Tables 1-3.
Series [2] concerns O=[N+]([O-])c1ccc(O[C@@H]2O[C@H](CO)[C@H](O)[C@H](O)[C@H]2O)cc1. Nature of the series: purified protein. Conditions: 50 mM potassium phosphate pH 7.2, 52 °C, 5 min.

Turning to H0HC94 (Agrobacterium tumefaciens 5A), in series [1], the Michaelis-Menten constant (Km) stood at 3.09 ± 0.40 mM, the kcat stood at 278 ± 4 s⁻¹ and the kcat/Km was determined as 89900 M⁻¹ s⁻¹. Also, in series [2], the Km was 12.93 ± 2.00 mM, the kcat is 215 ± 7 s⁻¹ and the kcat/Km turned out to be 16600 M⁻¹ s⁻¹.

What is called Km is the concentration of substrate that gives half-maximal velocity. One may read the kcat as the number of substrate molecules converted per active site and unit of time at saturation. The term kcat/Km denotes the turnover number divided by the Michaelis constant.

The record behind these values is publication PMC4802596, “Using the β-glucosidase catalyzed reaction product glucose to improve the ionic liquid tolerance of β-glucosidases” (Biotechnology for Biofuels, 2016).
